Results reported in paper PMC8818041 (Molecular cell, 2021).
Values belong to the binder of their own block, whether it stands above or below them.

Columns and labels:
cross-linking = biological target: the molecule itself; test: cross-linking
FLAG-tagged Npl4 = biological target: T1, FLAG-tagged Npl4 (S. cerevisiae, UniProt P33755 1-580); test: pull-down
T1 sequence: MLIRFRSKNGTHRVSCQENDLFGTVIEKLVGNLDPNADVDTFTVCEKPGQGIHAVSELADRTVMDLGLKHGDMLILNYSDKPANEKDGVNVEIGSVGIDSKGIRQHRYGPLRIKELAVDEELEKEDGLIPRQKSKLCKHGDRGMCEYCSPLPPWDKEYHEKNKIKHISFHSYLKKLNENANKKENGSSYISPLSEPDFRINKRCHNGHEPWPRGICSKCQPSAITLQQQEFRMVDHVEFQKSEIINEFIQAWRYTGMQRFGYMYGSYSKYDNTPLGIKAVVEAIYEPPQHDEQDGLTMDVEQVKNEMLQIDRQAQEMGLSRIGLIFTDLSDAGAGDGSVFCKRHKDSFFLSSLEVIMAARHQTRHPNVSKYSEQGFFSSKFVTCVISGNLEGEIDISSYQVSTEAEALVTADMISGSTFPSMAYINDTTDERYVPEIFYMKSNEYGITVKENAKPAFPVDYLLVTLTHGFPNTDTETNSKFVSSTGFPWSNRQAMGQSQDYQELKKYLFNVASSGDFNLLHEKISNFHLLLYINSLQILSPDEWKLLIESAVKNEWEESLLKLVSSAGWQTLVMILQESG

B1: Cdc48^2Cys (Cdc48 containing S286C and R333C) (enzyme, S. cerevisiae)
chain: MGEEHKPLLDASGVDPREEDKTATAILRRKKKDNMLLVDDAINDDNSVIAINSNTMDKLELFRGDTVLVKGKKRKDTVLIVLIDDELEDGACRINRVVRNNLRIRLGDLVTIHPCPDIKYATRISVLPIADTIEGITGNLFDVFLKPYFVEAYRPVRKGDHFVVRGGMRQVEFKVVDVEPEEYAVVAQDTIIHWEGEPINREDEENNMNEVGYDDIGGCRKQMAQIREMVELPLRHPQLFKAIGIKPPRGVLMYGPPGTGKTLMARAVANETGAFFFLINGPEVMCKMAGESESNLRKAFEEAEKNAPAIIFIDEIDSIAPKRDKTNGEVERCVVSQLLTLMDGMKARSNVVVIAATNRPNSIDPALRRFGRFDREVDIGIPDATGRLEVLRIHTKNMKLADDVDLEALAAETHGYVGADIASLCSEAAMQQIREKMDLIDLDEDEIDAEVLDSLGVTMDNFRFALGNSNPSALRETVVESVNVTWDDVGGLDEIKEELKETVEYPVLHPDQYTKFGLSPSKGVLFYGPPGTGKTLLAKAVATEVSANFISVKGPELLSMWYGESESNIRDIFDKARAAAPTVVFLDELDSIAKARGGSLGDAGGASDRVVNQLLTEMDGMNAKKNVFVIGATNRPDQIDPAILRPGRLDQLIYVPLPDENARLSILNAQLRKTPLEPGLELTAIAKATQGFSGADLLYIVQRAAKYAIKDSIEAHRQHEAEKEVKVEGEDVEMTDEGAKAEQEPEVDPVPYITKEHFAEAMKTAKRSVSDAELRRYEAYSQQMKASRGQFSNFNFNDAPLGTTATDNANSNNSAPSGAGAAFGSNAEEDDDLYS
modifications: disulfide bridges between neighbouring protomers after oxidation
- stoichiometry N (cross-linking): 6

- binding result (FLAG-tagged Npl4): binds
B2: Ufd1 (natural protein, S. cerevisiae, UniProt P53044 1-361, looked up)
chain: MFSGFSSFGGGNGFVNMPQTFEEFFRCYPIAMMNDRIRKDDANFGGKIFLPPSALSKLSMLNIRYPMLFKLTANETGRVTHGGVLEFIAEEGRVYLPQWMMETLGIQPGSLLQISSTDVPLGQFVKLEPQSVDFLDISDPKAVLENVLRNFSTLTVDDVIEISYNGKTFKIKILEVKPESSSKSICVIETDLVTDFAPPVGYVEPDYKALKAQQDKEKKNSFGKGQVLDPSVLGQGSMSTRIDYAGIANSSRNKLSKFVGQGQNISGKAPKAEPKQDIKDMKITFDGEPAKLDLPEGQLFFGFPMVLPKEDEESAAGSKSSEQNFQGQGISLRKSNKRKTKSDHDSSKSKAPKSPEVIEID
